This experiment has as its target T1, recombinant protein TCRVB 6-5 (human, biotinylated (captured on a Biotin CAP chip); site not stated).
T1 construct: also called TCRVβ 6-5; TCRβ V6-5*01
T1 TCR beta: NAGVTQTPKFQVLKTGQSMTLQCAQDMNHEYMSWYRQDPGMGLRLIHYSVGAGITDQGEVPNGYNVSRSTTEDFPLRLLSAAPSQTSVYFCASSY
The experiment can be described thus: SPR-type chip assay; TCRVB 6-5 captured on Biotin CAP Series S chip, construct as analyte, 1:1 binding model, 25C. On the procedure: TCRVB 6-5 at 5 ug/mL was immobilized on a Biotin CAP Series S Sensor Chip to 60 RU. A-H.52 was diluted to 50 nM and then serially diluted two fold Association was 120 seconds, dissociation was 300 seconds. This assay was run in 1×HBS-EP+ Buffer pH 7.4 and 25C. The data was fit using a 1:1 binding model. A-H.52 is a phage clones and is a monovalent scFv. A-H.52 has two mutations on CDRH1.
TCRVB 6-5 at 5 ug/mL was immobilized on a Biotin CAP Series S Sensor Chip to 60 RU. A-H.53 was diluted to 50 nM and then serially diluted two fold. Association was 120 seconds, dissociation was 300 seconds. This assay was run in 1×HBS-EP+ Buffer pH 7.4 and 25C. The data was fit using a 1:1 binding model. A-H.53 (phage clone) affinity is in the pM range (Table 17).
TCRVB 6-5 at 5 ug/mL was immobilized on a Biotin CAP Series S Sensor Chip to 60 RU. A-H.54 was diluted to 50 nM and then serially diluted two fold. Association was 120 seconds, dissociation was 300 seconds. This assay was run in 1×HBS-EP+ Buffer pH 7.4 and 25C. The data was fit using a 1:1 binding model.

Where a chain is given by its changes, count along the chain named.

B1: A-H.52 (scFv)
scFv: QVQLVQSGAEVKKPGSSVKVSCKASGYSFTLGYIHWVRQAPGQGLEWMGWFFPGSGNIKYNEKFKGRVTITADTSTSTAYMELSSLRSEDTAVYYCAGSYYSYDVLDYWGQGTTVTVSSGGGGSGGGGSGGGGSGGGGSDIQMTQSPSFLSASVGDRVTITCKASQNVGINVVWHQQKPGKAPKALIYSSSHRYSGVPSRFSGSGSGTEFTLTISSLQPEDFATYFCQQFKSYPLTFGQGTKLEIK
notes: Phage clone, stated to be a monovalent scFv with two mutations in CDRH1; also called Antibody A-H.52
B1: the Kd was 1.76 nM.

B2: A-H.53 (scFv)
scFv: B1 scFv with T30R, G32T
notes: Phage clone; also called Antibody A-H.53
Regarding B2, the Kd came to 0.165 nM.

B3: A-H.54 (scFv)
scFv: B1 scFv with T30H, L31N, G32W
notes: Phage clone; also called Antibody A-H.54
Take B3: the Kd is 2.22 nM.

B4: BJM0277 (antibody, V domains shown)
VH: QVQLVQSGAEVKKPGSSVKVSCKASGYSFTTYYIHWVRQAPGQGLEWMGWFFPGSGNIKYNEKFKGRVTITADTSTSTAYMELSSLRSEDTAVYYCAGSYYSYDVLDYWGQGTTVTVSS
VL: DIQMTQSPSFLSASVGDRVTITCKASQNVGINVVWHQQKPGKAPKALIYSSSHRYSGVPSRFSGSGSGTEFTLTISSLQPEDFATYFCQQFKSYPLTFGQGTKLEIKR
Regarding B4, the Kd came out at 35 nM.

A word on the Kd: it is the equilibrium constant for the complex coming apart.

Values taken from patent US20250297007A1 (published 2025).
